From patent US20160068605A1 (Janssen / Centocor, published 2016) come the findings set out here.

Residue numbers refer to the chain shown, from its start. Names and notes keep the numbering of the source. Values joined by “and” are separate entries in the source; they are usually repeats but may differ in a detail not shown here. Identical values can stand only once.

Experiment [1] concerns the target T1, cell-surface CD3 epsilon on primary human T cells (human, UniProt P07766 23-207).
T1 construct: whole, on cells; part of the CD3/TCR complex on the cells
Description: flow cytometry competition with labeled CD3B146 on T cells. From the text:
(§1) The format involved competition binding using a fixed concentration of labeled anti-CD3 mAb of known affinity and increasing concentrations of unlabeled test Abs (Ashkenazi A et al. PNAS: 88:10535, 1991.).

Experiment [2] concerns the target T2, cell-surface CD3 epsilon on primary cynomolgus T cells (cynomolgus monkey, UniProt Q95LI5 22-198).
T2 construct: whole, on cells; also called cynomolgus CD3e; Cyno T-cells
The experiment is described as above.
From the text: as §1

The target of experiment [3] is T3, Recombinant human CD123 SP1 ECD-His tag protein (human, UniProt P26951 20-305).
T3 construct: bought from R&D Systems (#301-R3/CF); biotinylated for some assays; also called rhCD123 SP1; huCD123 ECD SP1
T3 sequence: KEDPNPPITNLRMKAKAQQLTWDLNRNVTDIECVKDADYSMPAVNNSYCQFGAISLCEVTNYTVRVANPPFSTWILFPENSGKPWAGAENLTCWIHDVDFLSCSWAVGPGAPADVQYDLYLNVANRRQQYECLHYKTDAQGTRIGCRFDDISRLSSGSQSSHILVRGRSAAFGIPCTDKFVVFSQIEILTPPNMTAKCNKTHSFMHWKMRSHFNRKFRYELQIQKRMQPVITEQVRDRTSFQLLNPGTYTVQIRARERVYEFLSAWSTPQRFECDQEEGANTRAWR
Description: SPR ProteOn, captured mAb. As to the method: (§2) The biosensor surface was prepared by covalently coupling Goat anti-Human IgG (Fc) to the surface of a GLC chip (BioRad) using the manufacturer instructions for amine-coupling chemistry. […] The RU immobilized also included a goat anti-mouse Fc antibody that was added to capture other antibodies not included in the ones reported here. Since the mixture was 1:1 about 50% of these RU immobilized are expected to be goat anti-human Fc. The kinetic experiments were performed at 25° C. in running buffer (PBS pH 7.4, 0.005% P20, 3 mM EDTA). […] The reference spots (Goat anti-Human IgG (Fc)-modified surface) containing no candidate captured were used as a reference surface. Capture of mAb was followed by 3 min injection (association phase) of antigen at 40 μL/min, followed by 10 min of buffer flow (dissociation phase). […] Data was processed on the instrument software. Double reference subtraction of the data was performed by subtracting the curves generated by buffer injection from the reference-subtracted curves for analyte injections. Kinetic analysis of the data was performed using 1:1 Langmuir binding model with group fit. The result for each mAb was reported in the format of Kₐ (kon or on-rate), Kd (koff or off-rate), KD (Equilibrium dissociation constant) (Table 5).

The target of experiment [4] is T4, Recombinant human CD123 SP2 ECD protein (human, UniProt P26951 101-303).
T4 construct: also called rhCD123 SP2; CD123 ECD SP2
T4 sequence: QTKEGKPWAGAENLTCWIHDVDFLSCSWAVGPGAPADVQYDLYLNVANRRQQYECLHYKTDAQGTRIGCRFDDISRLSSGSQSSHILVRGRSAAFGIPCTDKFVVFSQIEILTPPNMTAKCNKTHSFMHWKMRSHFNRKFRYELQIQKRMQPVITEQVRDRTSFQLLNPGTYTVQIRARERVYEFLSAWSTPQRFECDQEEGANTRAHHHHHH
The experiment can be described thus: SPR ProteOn, captured mAb. As to the method: as §2

The target in experiment [5] is T5, cyno CD123 ECD displayed on pDisplay-transfected cells (cynomolgus monkey).
T5 construct: ECD anchored on the surface of stably transfected HEK293 cells; also called cynoCD123 SP1 cells; cynoCD123 cells
T5 chain: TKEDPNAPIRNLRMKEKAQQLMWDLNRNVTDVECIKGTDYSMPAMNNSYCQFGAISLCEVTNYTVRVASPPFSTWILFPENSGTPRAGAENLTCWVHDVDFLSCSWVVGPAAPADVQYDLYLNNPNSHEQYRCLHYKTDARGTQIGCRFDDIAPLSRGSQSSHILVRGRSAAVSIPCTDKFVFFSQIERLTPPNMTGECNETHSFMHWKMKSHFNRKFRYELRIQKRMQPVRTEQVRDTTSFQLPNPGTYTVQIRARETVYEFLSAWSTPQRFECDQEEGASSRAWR
The experiment can be described thus: MSD cell binding on 293F pDisplay cells; fold change over background; parental 293F cells as control. The procedure: The object of the screening assay was to identify antibodies that bound to cells expressing hCD123 SP1 and SP2 as well as cross reactivity with cells expressing cynoCD123 SP1.
Cells were immobilized and phages were assayed in triplicate. […] 5000 cells per well were plated into a 384 well plate (MA6000, cat. L21XB, MSD) and allowed to adhere for 2 hr. Cells were then blocked with 20% FBS in PBS (Gibco) for 15 mins. Antibody supernatants were then added and left at RT for 1 hr. Cells were washed 3 times with PBS and a ruthenium labeled secondary antibody (Jackson Immuno Research) was then added at 1 μg/mL and incubated for 1 hr at room temperature. A further washing step was then applied and 35 μL per well of MSD Read buffer T (surfactant free) was then added and incubated for 30 min for detection. Plates were then read using Sector Imager 2400 (MSD). Data was normalized to controls and graphed using GraphPad Prism Version 5. A positive binder was determined to be a hit with a signal 3× greater than background (FIGS. 2A, B and C).

T2 sequence (Q95LI5 22-198): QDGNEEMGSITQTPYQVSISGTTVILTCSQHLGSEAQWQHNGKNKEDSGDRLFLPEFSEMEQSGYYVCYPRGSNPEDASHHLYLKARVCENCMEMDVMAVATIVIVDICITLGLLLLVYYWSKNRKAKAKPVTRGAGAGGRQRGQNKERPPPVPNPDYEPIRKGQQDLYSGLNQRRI
T1 sequence (P07766 23-207): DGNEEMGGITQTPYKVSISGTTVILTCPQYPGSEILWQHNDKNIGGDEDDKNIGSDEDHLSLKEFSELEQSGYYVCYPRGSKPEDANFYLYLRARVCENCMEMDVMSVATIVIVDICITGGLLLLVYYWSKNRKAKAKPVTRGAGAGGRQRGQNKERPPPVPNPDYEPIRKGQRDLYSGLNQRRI

B1: CD3B146 (antibody, IgG1, V domains shown)
VH: EVQLVESGGGLVQPGGSLRLSCAASGFTFNTYAMNWVRQAPGKGLEWVARIRSKYNNYATYYAASVKGRFTISRDDSKNSLYLQMNSLKTEDTAVYYCARHGNFGNSYVSWFAYWGQGTLVTVSS
VL: QTVVTQEPSLTVSPGGTVTLTCRSSTGAVTTSNYANWVQQKPGQAPRGLIGGTNKRAPGTPARFSGSLLGGKAALTLSGVQPEDEAEYYCALWYSNLWVFGGGTKLTVL
notes: IgG1 constant region with L234A, L235A, F405L; human lambda constant region; also called CD3B146 hu IgG1-AlaAla F405L
In the case of B1, the Kd in experiment [1] turned out to be 3.2 nM; in experiment [2], 1.1 nM.

B2: I3RB5 (antibody, IgG1, V domains shown)
VH: EVQLLESGGGLVQPGGSLRLSCAASGFTFSGYWMSWVRQAPGKGLEWVSGINYDGGSTYYADSVKGRFTISRDNSKNTLYLQMNSLRAEDTAVYYCAKDHFLAEFDYWGQGTLVTVSS
VL: not shown
notes: IgG1; also called I3RB05
With B2, the equilibrium dissociation constant (Kd) in experiment [3] was 12.8 nM and 12.9 nM; in experiment [4], 4.88 nM and 4.09 nM.

B3: I3RB19 (antibody, IgG1, V domains shown)
VH: EVQLLESGGGLVQPGGSLRLSCAASGFTFSNYAMSWVRQAPGKGLEWVSGIRGNGSSTYYADSVKGRFTISRDNSKNTLYLQMNSLRAEDTAVYYCAKGGPIGARFPDYLDYWGQGTLVTVSS
VL: DIQMTQSPSSLSASVGDRVTITCRASQSIGDFLNWYQQKPGKAPKLLIYYASSLQSGVPSRFSGSGSGTDFTLTISSLQPEDFATYYCQQSYSTPLTFGQGTKVEIK
notes: IgG1; also called 13RB19
On to B3, for which, in experiment [3], the Kd amounted to 119 nM, the off-rate (koff) came out at 0.0251 s⁻¹ and the on-rate constant (kon) is 211000 M⁻¹ s⁻¹. Besides, in experiment [4], the Kd was 48.3 nM, the off-rate constant (koff) worked out at 0.0161 s⁻¹ and the kon worked out at 334000 M⁻¹ s⁻¹. Further, in experiment [5], the binding result is “no binding (tested: 10 µg/mL)”.

B4: I3RB1 (antibody, IgG1, V domains shown)
VH: EVQLLESGGGLVQPGGSLRLSCAASGFTFSDYGMSWVRQAPGKGLEWVSVIRGGGSSKYYADSVKGRFTISRDNSKNTLYLQMNSLRAEDTAVYYCAKHSGSFRFNELDYWGQGTLVTVSS
VL: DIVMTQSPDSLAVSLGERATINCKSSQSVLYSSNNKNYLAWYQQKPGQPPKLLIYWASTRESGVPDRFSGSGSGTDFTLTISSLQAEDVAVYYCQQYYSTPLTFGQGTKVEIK
notes: IgG1; also called I3RB01
For the molecule B4, the binding result in experiment [5] is reported as “no binding (tested: 10 µg/mL)”.

B5: I3RB33 (antibody, IgG1, V domains shown)
VH: QVQLVQSGAEVKKPGSSVKVSCKASGGTFSSYGISWVRQAPGQGLEWMGGIIPIFGTANYAQKFQGRVTITADESTSTAYMELSSLRSEDTAVYYCARGYWHWNYDYLDYWGQGTLVTVSS
VL: EIVLTQSPATLSLSPGERATLSCRASQSVNDWLAWYQQKPGQAPRLLIYGASNRATGIPARFSGSGSGTDFTLTISSLEPEDFAVYYCQQYKRAPYTFGQGTKVEIK
notes: IgG1
With B5, in experiment [3], the Kd came out at 4.23 nM, the koff is 0.00177 s⁻¹ and the kon worked out at 417000 M⁻¹ s⁻¹. Further, the binding result in experiment [4] was “no binding (tested: 400 nM)”. In experiment [5], the binding result is listed as “binds”.

B6: I3RB40 (antibody, IgG1, V domains shown)
VH: QVQLVQSGAEVKKPGSSVKVSCKASGGTFSSYAISWVRQAPGQGLEWMGGIIPIFGTANYAQKFQGRVTITADESTSTAYMELSSLRSEDTAVYYCARGQWWADTWFDYWGQGTLVTVSS
VL: B5 VL with N30A, D31K, K92H, R93T, Y96W
notes: IgG1
For the molecule B6, in experiment [3], the dissociation constant (Kd) was 6.02 nM, the off-rate (koff) came out at 0.00346 s⁻¹ and the kon is 574000 M⁻¹ s⁻¹. Further, in experiment [4], the binding result is given as “no binding (tested: 400 nM)”. Moreover, in experiment [5], the binding result is given as “no binding (tested: 10 µg/mL)”.

B7: I3RB30 (antibody, IgG1, V domains shown)
VH: QVQLVQSGAEVKKPGSSVKVSCKASGGTFSSYAISWVRQAPGQGLEWMGWIIPIFGTANYAQKFQGRVTITADESTSTAYMELSSLRSEDTAVYYCARLVYSSDFDYWGQGTLVTVSS
VL: B5 VL with N30A, D31N, G50Y, K92D, R93G, A94W, Y96R
notes: IgG1; also called 13RB30
With B7, in experiment [3], the Kd worked out at 4.17 nM, the off-rate constant (koff) worked out at 0.00302 s⁻¹ and the kon amounted to 725000 M⁻¹ s⁻¹. Besides, in experiment [4], the Kd was 330 nM, the koff is 0.048 s⁻¹ and the kon was found to be 145000 M⁻¹ s⁻¹. Also, in experiment [5], the binding result is reported as “no binding (tested: 10 µg/mL)”.

B8: I3RB36 (antibody, IgG1, V domains shown)
VH: B5 VH with G99D, Y100L, W101H, H102V, N104A, D106S, Y107N, L108F
VL: not shown
notes: IgG1
Regarding B8, in experiment [3], the dissociation constant Kd came out at 2.47 nM, the koff turned out to be 0.00166 s⁻¹ and the kon worked out at 675000 M⁻¹ s⁻¹. The binding result in experiment [4] is “no binding (tested: 400 nM)”.

B9: I3RB20 (antibody, IgG1, V domains shown)
VH: B5 VH with G33A, G99D, Y100D, W101Q, H102I, N104G, Y105S, D106Y, Y107H
VL: not shown
notes: IgG1
Regarding B9, in experiment [3], the Kd stood at 1.68 nM, the koff worked out at 0.00106 s⁻¹ and the kon was determined as 631000 M⁻¹ s⁻¹.

B10: I3RB16 (antibody, IgG1, V domains shown)
VH: B6 VH with Q100A, W101V, A103G, T105Q
VL: not shown
notes: IgG1
For B10, in experiment [5], the binding result is “no binding (tested: 10 µg/mL)”.

B11: CD123 null 2 (bispecific antibody, human IgG4 S228P, lambda, F234A L235A)
heavy: EVQLLESGGGLVQPGGSLRLSCAASGFTFNTYAMNWVRQAPGKGLEWVARIRSKYNNYATYYADSVKGRFTISRDNSKNTLYLQMNSLRAEDTAVYYCVKHGNFGNSYVSWFAYWGQGTLVTVSSASTKGPSVFPLAPCSRSTSESTAALGCLVKDYFPEPVTVSWNSGALTSGVHTFPAVLQSSGLYSLSSVVTVPSSSLGTKTYTCNVDHKPSNTKVDKRVESKYGPPCPPCPAPEAAGGPSVFLFPPKPKDTLMISRTPEVTCVVVDVSQEDPEVQFNWYVDGVEVHNAKTKPREEQFNSTYRVVSVLTVLHQDWLNGKEYKCKVSNKGLPSSIEKTISKAKGQPREPQVYTLPPSQEEMTKNQVSLTCLVKGFYPSDIAVEWESNGQPENNYKTTPPVLDSDGSFLLYSKLTVDKSRWQEGNVFSCSVMHEALHNHYTQKSLSLSLGK
light: QAVVTQEPSLTVSPGGTVTLTCRSSTGAVTTSNYANWVQQKPGQAPRGLIGGTNKRAPGTPARFSGSLLGGKAALTLSGAQPEDEAEYYCALWYSNLWVFGGGTKLTVLGQPKAAPSVTLFPPSSEELQANKATLVCLISDFYPGAVTVAWKADSSPVKAGVETTTPSKQSNNKYAASSYLSLTPEQWKSHRSYSCQVTHEGSTVEKTVAPTECS
VH: not shown
VL: not shown
notes: also called B21M IgG4 x CD3B217
Regarding B11, the dissociation constant (Kd) in experiment [1] amounted to 266 nM; in experiment [2] it was 217 nM.

B12: CD123 null 1 (bispecific antibody, human IgG4 S228P, lambda, F234A L235A)
heavy: B11 heavy with L5V, D64A, N76D, T80S, R89K, A90T, V99A, K100R
light: B11 light with A2T, A80V
VH: not shown
VL: not shown
notes: also called B21M IgG4 x CD3B219
In the case of B12, the Kd in experiment [1] is 13.2 nM; in experiment [2], 13.4 nM.

B13: CD123 null 3 (bispecific antibody, human IgG4 S228P, lambda, F234A L235A)
heavy: B11 heavy
light: B11 light with A2T, A80V
VH: not shown
VL: not shown
notes: also called B21M IgG4 x CD3B218
As to B13, the dissociation constant (Kd) amounted to 200 nM in experiment [1] and 237 nM in experiment [2].

As usually defined, the Kd is the concentration at which binding is half-saturated. One may read the koff as a measure of how fast the partners let go of each other. What is called kon is the second-order rate constant of association.
